From the RNAGym collection of RNA variant scans (doi:10.7554/elife.90254)

B1: LINE1-mini (parent)
chain: GGCAGAGCUCAACACAGCGUGGCAAAGUGGCUGUGGCUAGACUGCC

Variants of: B1
Experiment: self-cleavage, relative activity (ratio to wild type); higher = more cleavage; in vitro, sequencing; the parent is a self-cleaving ribozyme

Variant	self-cleavage
GGCAGAGCUCAACACAGCGUGGCAUAGUGGCUGUGGCUAAACUGCC [A25U G40A]	0.18
GGCAGAGCUCAACACAGCGUGGCAUAGUGGCUGUGGCUACACUGCC [A25U G40C]	0.09
GGCAGAGCUCAACACAGCGUGGCAUAGUGGCUGUGGCUAUACUGCC [A25U G40U]	0.14
GGCAGAGCUCAACACAGCGUGGCAUAGUGGCUGUGGCUAGACUGCC [A25U]	1.21
GGCAGAGCUCAACACAGCGUGGCAUAGUGGCUGUGGCUCGACUGCC [A25U A39C]	0.23
GGCAGAGCUCAACACAGCGUGGCAUAGUGGCUGUGGCUGGACUGCC [A25U A39G]	0.07
GGCAGAGCUCAACACAGCGUGGCAUAGUGGCUGUGGCUUGACUGCC [A25U A39U]	0.86
GGCAGAGCUCAACACAGCGUGGCAGAGAGGCUGUGGCUAGACUGCC [A25G U28A]	1.01
GGCAGAGCUCAACACAGCGUGGCAGAGCGGCUGUGGCUAGACUGCC [A25G U28C]	0.84
GGCAGAGCUCAACACAGCGUGGCAGAGGGGCUGUGGCUAGACUGCC [A25G U28G]	0.57
GGCAGAGCUCAACACAGCGUGGCAUAGUGGCUGUGGCUAGAGUGCC [A25U C42G]	0.06
GGCAGAGCUCAACACAGCGUGGCAUAGUGGCUGUGGCUAGAAUGCC [A25U C42A]	0.24
GGCAGAGCUCAACACAGCGUGGCAUAGUGGCUGUGGCUAGAUUGCC [A25U C42U]	0.4
GGCAGAGCUCAACACAGCGUGGCAGAGUGGCUGUGGCUAGAUUGCC [A25G C42U]	0.26
GGCAGAGCUCAACACAGCGUGGCAGAGUGGCUGUGGCUAGAGUGCC [A25G C42G]	0.05
GGCAGAGCUCAACACAGCGUGGCAGAGUGGCUGUGGCUAGAAUGCC [A25G C42A]	0.09
GGCAGAGCUCAACACAGCGUGGCAGAGUGGCUGUGUCUAGACUGCC [A25G G36U]	0.05
GGCAGAGCUCAACACAGCGUGGCAGAGUGGCUGUGACUAGACUGCC [A25G G36A]	0.15
GGCAGAGCUCAACACAGCGUGGCAGAGUGGCUGUGCCUAGACUGCC [A25G G36C]	0.04

Variant	self-cleavage
GGCAGAGCUCAACACAGCGUGGCAUAGUGGCUGGGGCUAGACUGCC [A25U U34G]	0.16
GGCAGAGCUCAACACAGCGUGGCAUAGUGGCUGCGGCUAGACUGCC [A25U U34C]	0.13
GGCAGAGCUCAACACAGCGUGGCAUAGUGGCUGAGGCUAGACUGCC [A25U U34A]	0.16
GGCAGAGCUCAACACAGCGUGGCAGAGUGGCUGUGGCUAGACUGCU [A25G C46U]	0.4
GGCAGAGCUCAACACAGCGUGGCAGAGUGGCUGUGGCUAGACUGCA [A25G C46A]	0.55
GGCAGAGCUCAACACAGCGUGGCAGAGUGGCUGUGGCUAGACUGCG [A25G C46G]	0.78
GGCAGAGCUCAACACAGCGUGGCAUAGUGCCUGUGGCUAGACUGCC [A25U G30C]	0.46
GGCAGAGCUCAACACAGCGUGGCAUAGUGUCUGUGGCUAGACUGCC [A25U G30U]	1.75
GGCAGAGCUCAACACAGCGUGGCAUAGUGACUGUGGCUAGACUGCC [A25U G30A]	1.17
GGCAGAGCUCAACACAGCGUGGCAUAGUGGCUGUAGCUAGACUGCC [A25U G35A]	0.12
GGCAGAGCUCAACACAGCGUGGCAUAGUGGCUGUCGCUAGACUGCC [A25U G35C]	0.09
GGCAGAGCUCAACACAGCGUGGCAUAGUGGCUGUUGCUAGACUGCC [A25U G35U]	0.16
GGCAGAGCUCAACACAGCGUGGCAGAGUGGCUGUGGCUAGACUGAC [A25G C45A]	0.86
GGCAGAGCUCAACACAGCGUGGCAGAGUGGCUGUGGCUAGACUGGC [A25G C45G]	0.17
GGCAGAGCUCAACACAGCGUGGCAGAGUGGCUGUGGCUAGACUGUC [A25G C45U]	0.45
GGCAGAGCUCAACACAGCGUGGCAUAGUGGCAGUGGCUAGACUGCC [A25U U32A]	0.04
GGCAGAGCUCAACACAGCGUGGCAUAGUGGCCGUGGCUAGACUGCC [A25U U32C]	0.27
GGCAGAGCUCAACACAGCGUGGCAUAGUGGCGGUGGCUAGACUGCC [A25U U32G]	0.3
GGCAGAGCUCAACACAGCGUGGCAUAGUGGCUCUGGCUAGACUGCC [A25U G33C]	0.04

Variant	self-cleavage
GGCAGAGCUCAACACAGCGUGGCAUAGUGGCUAUGGCUAGACUGCC [A25U G33A]	0.12
GGCAGAGCUCAACACAGCGUGGCAUAGUGGCUUUGGCUAGACUGCC [A25U G33U]	0.13
GGCAGAGCUCAACACAGCGUGGCAUACUGGCUGUGGCUAGACUGCC [A25U G27C]	0.52
GGCAGAGCUCAACACAGCGUGGCAUAAUGGCUGUGGCUAGACUGCC [A25U G27A]	0.59
GGCAGAGCUCAACACAGCGUGGCAUAUUGGCUGUGGCUAGACUGCC [A25U G27U]	0.74
GGCAGAGCUCAACACAGCGUGGCAGAGUCGCUGUGGCUAGACUGCC [A25G G29C]	0.65
GGCAGAGCUCAACACAGCGUGGCAGAGUUGCUGUGGCUAGACUGCC [A25G G29U]	1.14
GGCAGAGCUCAACACAGCGUGGCAGAGUAGCUGUGGCUAGACUGCC [A25G G29A]	0.32
GGCAGAGCUCAACACAGCGUGGCAGAGUGGCUGCGGCUAGACUGCC [A25G U34C]	0.07
GGCAGAGCUCAACACAGCGUGGCAGAGUGGCUGAGGCUAGACUGCC [A25G U34A]	0.06
GGCAGAGCUCAACACAGCGUGGCAGAGUGGCUGGGGCUAGACUGCC [A25G U34G]	0.12
GGCAGAGCUCAACACAGCGUGGCAGAGUGGCUGUGGCUAGACUACC [A25G G44A]	0.21
GGCAGAGCUCAACACAGCGUGGCAGAGUGGCUGUGGCUAGACUCCC [A25G G44C]	0.19
GGCAGAGCUCAACACAGCGUGGCAGAGUGGCUGUGGCUAGACUUCC [A25G G44U]	0.28
GGCAGAGCUCAACACAGCGUGGCAUAGUGGCUGUGGCUAGACUGCU [A25U C46U]	1.04
GGCAGAGCUCAACACAGCGUGGCAUAGUGGCUGUGGCUAGACUGCG [A25U C46G]	0.66
GGCAGAGCUCAACACAGCGUGGCAUAGUGGCUGUGGCUAGACUGCA [A25U C46A]	1.01
GGCAGAGCUCAACACAGCGUGGCAGAGUGGCUGUUGCUAGACUGCC [A25G G35U]	0.06
